# T1: SpHex (Streptomyces plicatus, UniProt O85361)
# T1 construct: gene hex
# T1 sequence (O85361 1-506): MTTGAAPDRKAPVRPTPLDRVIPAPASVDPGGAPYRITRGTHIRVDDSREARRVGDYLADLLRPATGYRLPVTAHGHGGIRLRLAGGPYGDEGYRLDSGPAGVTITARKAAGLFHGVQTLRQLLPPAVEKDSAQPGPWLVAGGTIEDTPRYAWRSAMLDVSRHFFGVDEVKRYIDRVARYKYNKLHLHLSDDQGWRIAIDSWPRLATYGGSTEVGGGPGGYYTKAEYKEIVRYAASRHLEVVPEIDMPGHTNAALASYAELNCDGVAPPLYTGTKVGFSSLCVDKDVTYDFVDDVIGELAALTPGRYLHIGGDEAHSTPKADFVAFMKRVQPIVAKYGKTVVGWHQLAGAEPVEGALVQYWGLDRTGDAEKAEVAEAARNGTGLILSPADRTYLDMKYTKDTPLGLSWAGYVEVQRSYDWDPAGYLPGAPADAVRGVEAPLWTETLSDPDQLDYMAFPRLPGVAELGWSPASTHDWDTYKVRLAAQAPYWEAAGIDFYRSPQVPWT
# B1: PhNah20A (Paraglaciecola hydrolytica) (protein)
# chain: MYKIIIAGLGLLWSITSHGMQPLNLMPYPSEVQQQAGHFTLPSQLKVFTQHVSEARCELIKEQLEQLQQVEVLWVTAKDQANLLVEVEGVTQVMEVGGKSGELIPTLHDNEQYHLSVSPRLITLKAQTERGMLHGVQTLLQLVNRTQRSIPAVDIDDKPRFAWRGLLIDSVRHFMPVDTIKRQLRGMASAKLNVLHWHLTDDQGWRIASKAYPKLQLLASDGLFYTQQQIREVVQYAALLGIRVVPEFDVPGHASAIAVAYPELITQPGPYTMQRHWGVFEPLLDPSNPQVYQFIETIISELAELFPDVYVHIGGDEIEPTQWQQSQAVQHYMQQHQLADEHQLHAYFNQQVQQILSKYGKQMMGWDEVFATDLPKDIVVQSWRGLDSLQHIASSDYQVLLSTGYYVDQPQEAAYHYRNDPFTSFKQPSFKTQDIKHWQHWQFTMPRLKGSAVSGEFVLLSSEAGKQVLLRFNNQQARLINELEPRANLQRFTVDSWMGPSQFELDLSKDVIQQGRILIGNTPYSVSGNRLAQSTGSKALPAMLQDFVAASKVPTDLPKLHKNILGGEAAIWSEIVRADNLDLRLWPRLYAIAERLWSPATLTDEDAMYRRLTVMQTYASEVIGLEFTQQQRAGFKQLTSQDADIEPLIILAEAVEQAQYYTRHHSKFQHDNYHQLVELNQYVDYLSAQSLGLVELKRHIELFQQGDQQAKKFIEQLLQKWQKNLPKLKLLIANYPKLHSLAPLVTTLSQVVDIGQKLVAQCAKGEPLKPEHQRDVQQQLWQAAQLQQEMVVSSALAIEALAFKCRA
# Experiments:
# [1] = target: T1, SpHex; assay: transglycosylation time course, TLC; format: biochemical; settings: donor 100 mM; acceptor 200 mM lactose; 50 mM sodium phosphate pH 8.0, 0.5% BSA, 37 °C
# [2] = substrate: CC(=O)N[C@H]1[C@H](Oc2ccc([N+](=O)[O-])cc2)O[C@H](CO)[C@@H](O)[C@@H]1O; assay: purified protein; format: biochemical, Paraglaciecola hydrolytica; settings: two-fold diluted McIlvaine buffer pH 6.0, 0.05% BSA, 37 °C
# [3] = substrate: CC(=O)N[C@H]1[C@H](Oc2ccc([N+](=O)[O-])cc2)O[C@H](CO)[C@H](O)[C@@H]1O; assay: purified protein; format: biochemical, Paraglaciecola hydrolytica; settings: two-fold diluted McIlvaine buffer pH 6.0, 0.05% BSA, 37 °C
Molecule,"transglycosylation time course, TLC [1]",Km [2] [µM],kcat [2] [s⁻¹],kcat/Km [2] [M⁻¹ s⁻¹],Km [3] [µM],kcat [3] [s⁻¹],kcat/Km [3] [M⁻¹ s⁻¹]
"CC1=N[C@H]2[C@@H](O1)O[C@H](CO)[C@@H](O)[C@@H]2O [NAG-oxazoline, 2-methyl-(1,2-dideoxy-α-D-glucopyrano)-oxazoline]",We here also demonstrated transglycosylation by the commercial GH20 N-acetylglucosaminidase from S. plicatus (SpHex),–,–,–,–,–,–
B1,–,430 ± 70,147,341000,560 ± 110,193,344000

# — paper PMC7014002, “Identification and Characterization of a β-N-Acetylhexosaminidase with a Biosynthetic Activity from the Marine Bacterium Paraglaciecola hydrolytica S66^T” (International Journal of Molecular Sciences, 2020)
